The target of assay [1] is lysyl oxidase (rat (endogenous in RRECs)) (UniProt P16636). Briefly: co-IP.
Assay [2] shares this target. Kind of assay: co-IP. This is another data set of the same source.

Read-outs that look alike come from different tables or passages of the source.

Chain of UniProt P16636 (P16636 22-411): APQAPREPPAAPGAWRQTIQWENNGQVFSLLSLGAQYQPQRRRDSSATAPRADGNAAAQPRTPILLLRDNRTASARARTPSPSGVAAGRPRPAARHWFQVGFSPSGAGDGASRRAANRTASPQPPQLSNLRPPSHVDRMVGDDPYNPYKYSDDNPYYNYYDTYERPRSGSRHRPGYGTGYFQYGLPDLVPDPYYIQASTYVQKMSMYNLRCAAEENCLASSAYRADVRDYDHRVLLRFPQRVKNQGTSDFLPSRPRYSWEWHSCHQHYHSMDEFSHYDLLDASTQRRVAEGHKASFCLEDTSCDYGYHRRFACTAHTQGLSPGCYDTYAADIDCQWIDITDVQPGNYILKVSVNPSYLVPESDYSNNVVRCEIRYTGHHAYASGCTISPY

In the case of “fibronectin (from UniProt P04937 25-2477) (natural protein)”, the LOX bound to FN in HG medium, % of normal-glucose control is 168 % of control in assay [1] and 156 % of control in assay [2].

For collagen IV (natural protein), the values for the LOX bound to Coll IV in HG medium, % of normal-glucose control in assay [1] and in assay [2] were 144 % of control and 138 % of control, respectively.

The values are drawn from publication PMC7401919.
